The test system of this assay is B16F10 tumor. The assay can be described thus: Syngeneic B16F10 tumor model, tumor growth and tumor T cell influx. The assay is classed as in vivo, C57BL/6 mice. Here is the method: B16F10 model was established in female C57BL/6 mice by subcutaneous injection of 0.5×10^6 cells into the right flank of each mouse. On day 7 once tumors reached approximately 30 mm^3, mice were randomized according to tumor volume into treatment groups (n=10 per group). Mice received treatment of either anti-mouse ENTPD2 mAb13 at a final dose 15 mg/kg, anti-PD-1 Ab (clone RMP1-14 Bio X Cell, West Lebanon, NH) i.p. at a final dose of 10 mg/kg or the combination of both treatments on days 1, 5, and 8. All doses were adjusted to individual mouse body weights.
In order to understand the impact of treatments on the tumor microenvironment, mice were euthanized on day 8 and tumors were dissociated in HyClone RPMI1640 media (GE Healthcare, Pittsburgh, PA) using gentleMacs C-tubes (Miltenyi Biotec, Auburn, CA) on the gentleMacs Octo Dissociator (Miltenyi Biotec, Auburn, CA). Approximately 2×10^6 dissociated tumor cells were blocked with rat anti-mouse CD16/CD32 Ab (Biolegend, San Diego, CA) to reduce non-specific FcyRIII/II binding and subsequently stained with the following cocktail of Abs: rat anti-mouse CD45-BUV395 (clone 30-F11) (BD Biosciences, San Jose, CA), rat anti-mouse CD8a-BUV737 (clone 53-6.7) (BD Biosciences, San Jose, CA), rat anti-mouse CD4-BV510 (clone RM4-5) (BD Bioscience, San Jose CA), anti-mouse CD69-PercPCy5.5 (clone H1-2F3) (Biolegend, San Diego, CA) and rat anti-mouse CD25-eFluor450 (clone eBio3C7) (eBioscience, San Diego, CA) at the manufacturers' recommended dilutions. All incubations and washes were performed in FACS Buffer composed of 1× HyClone Phosphate Buffered Saline (GE Healthcare, Pittsburgh, PA), 1% HyClone Fetal Bovine Serum (GE Healthcare, Pittsburgh, PA), 2 mM EDTA (ThermoFisher, Waltham MA). After staining with the cell surface antigen antibody cocktail, dissociated tumor cells were washed in FACS buffer, fixed and permeabilized using the eBioscience Foxp3/Transcription Factor Staining Buffer Kit (ThermoFisher, Waltham MA) to allow for intracellular staining with the mouse anti-mouse FOXP3-eFluor660 (clone 150D/E4) (eBioscience, San Diego, CA).

Setting [1] is: mAb13 and anti-PD-1 Ab combination, day 8.

B1: mAb13: anti-mouse ENTPD2 monoclonal antibody, VH SEQ ID NO: 191, VL SEQ ID NO: 202 (antibody, V domains shown)
VH: QVQLVQSGAELKQPGQSVKISCKASGYTFTHYGMNWVKQAPGQGLKWMGWINTDTGNPTYADDFKGRFVFSLDTSVSTAYLQISNLKNEDTATYYCVRYGTLYSGYGFFFDSWGQGTLVTVSS
VL: DIMMTQSPSSLSVSAGEKATITCKSSQSLFNSNTNKNYLNWYLQKPGQSPKLLFYYASTRHTGVPDRFIGSGSGTDFTLTITSVQDEDLADYYCQQWYSYPWTFGPGTKLEIK
In the case of B1, the “tumor growth relative to No Treatment control, combination” value (mAb13 15 mg/kg in combination with anti-PD-1 Ab 10 mg/kg, days 1, 5, 8) was “significant reduction in tumor growth”. In addition, for the setting “mAb13 15 mg/kg or anti-PD-1 Ab 10 mg/kg i.p. alone, days 1, 5, 8”, the “anti-tumor efficacy, treatment alone” value is “No significant anti-tumor efficacy”. For the same molecule, under setting [1], the “activated CD4 T-helper cells (CD45+ CD8− CD4+ FOXP3− CD69+ CD25+) in tumor, increase vs No Treatment” value amounted to 7.0 fold and the “activated CD8 T cells (CD45+ CD4− CD8+ CD69+ CD25+) in tumor, change vs No Treatment” value came to 5.8 fold.

For the origin of these results see US11939397B2, “ENTPD2 antibodies, combination therapies, and methods of using the antibodies and combination therapies” (Novartis AG, priority 2018, dated 2024).
